Reference: patent publication US20200024330A1

Tests used:
Test in all cases: cell-based or functional assay
[1] = target: HIV-1 92TH021 envelope glycoprotein (Env) on pseudovirus (HIV-1)
[2] = target: HIV-1 92UG005 envelope glycoprotein (Env) on pseudovirus (HIV-1)
[3] = target: HIV-1 92UG024 envelope glycoprotein (Env) on pseudovirus (HIV-1)
[4] = target: HIV-1 Env of isolate MGRM-AE-004 (HIV-1)
[5] = target: HIV-1 Env of isolate MGRM-AE-005 (HIV-1)
[6] = target: HIV-1 Env of isolate MGRM-AE-006 (HIV-1)
[7] = target: HIV-1 Env of isolate MGRM-AE-007 (HIV-1)
[8] = target: HIV-1 Env of isolate MGRM-AE-008 (HIV-1)
[9] = target: HIV-1 Env of isolate MGRM-F1-021 (HIV-1)
[10] = target: HIV-1 Env of isolate MGRM-G-001 (HIV-1)
[11] = target: HIV-1 Env of isolate MGRM-G-004 (HIV-1)
[12] = target: HIV-1 Env of isolate MGRM-G-006 (HIV-1)
[13] = target: HIV-1 Env of isolate MGRM-G-009 (HIV-1)
[14] = target: HIV-1 Env of isolate MGRM-G-011 (HIV-1)
[15] = target: HIV-1 Env of isolate MGRM-G-013 (HIV-1)
[16] = target: HIV-1 Env of isolate MGRM-G-014 (HIV-1)
[17] = target: HIV-1 Env of isolate MGRM-G-015 (HIV-1)
[18] = target: HIV-1 Env of isolate MGRM-G-016 (HIV-1)
[19] = target: HIV-1 Env of isolate MGRM-G-017 (HIV-1)
[20] = target: HIV-1 Env of isolate MGRM-G-019 (HIV-1)
[21] = target: HIV-1 Env of isolate MGRM-G-027 (HIV-1)
[22] = target: HIV-1 NL43 envelope glycoprotein (Env) on pseudovirus (HIV-1)
[23] = target: aMLV envelope (negative control pseudovirus)
[24] = target: HIV-1 92BR020 envelope glycoprotein (Env) on pseudovirus (HIV-1)
[25] = target: HIV-1 92RW020 envelope glycoprotein (Env) on pseudovirus (HIV-1)

4838_L06 (PGT-121) (antibody)
IC50 (ug/ml), neutralizing activity [1]: > 10 µg/mL
IC50 (ug/ml), neutralizing activity [2]: > 10 µg/mL
IC50 (ug/ml), neutralizing activity [3]: > 10 µg/mL
neutralization IC50 [4]: > 50 µg/mL
neutralization IC50 [5]: > 50 µg/mL
neutralization IC50 [6]: > 50 µg/mL
neutralization IC50 [7]: > 50 µg/mL
neutralization IC50 [8]: > 50 µg/mL
IC50 [9]: 0.099 µg/mL
IC50, pseudovirus neutralization [10]: 0.004 µg/mL
IC50, pseudovirus neutralization [11]: 0.115 µg/mL
IC50, pseudovirus neutralization [12]: > 50 µg/mL
IC50, pseudovirus neutralization [13]: 0.02 µg/mL
IC50, pseudovirus neutralization [14]: 3.17 µg/mL
IC50, pseudovirus neutralization [15]: 3.99 µg/mL
IC50, pseudovirus neutralization [16]: 0.009 µg/mL
IC50, pseudovirus neutralization [17]: > 50 µg/mL
IC50, pseudovirus neutralization [18]: > 50 µg/mL
IC50, pseudovirus neutralization [19]: 0.004 µg/mL
IC50, pseudovirus neutralization [20]: 0.011 µg/mL
IC50, pseudovirus neutralization [21]: 0.124 µg/mL
IC50 (ug/ml), neutralizing activity [22]: > 10 µg/mL
IC50, pseudovirus neutralization [23]: > 50 µg/mL

4858_P08 (PGT-123) (antibody)
IC50 (ug/ml), neutralizing activity [24]: 0.013 µg/mL
IC50, pseudovirus neutralization [24]: 0.013 µg/mL
IC80, pseudovirus neutralization [24]: 0.039 µg/mL
IC90 (pseudovirus neutralization) [24]: 0.0741 µg/mL
IC95, pseudovirus neutralization [24]: 0.134 µg/mL
IC50 (ug/ml), neutralizing activity [25]: 0.0038 µg/mL
IC50, pseudovirus neutralization [25]: 0.0038 µg/mL
IC80, pseudovirus neutralization [25]: 0.0106 µg/mL
IC90 (pseudovirus neutralization) [25]: 0.0194 µg/mL
IC95, pseudovirus neutralization [25]: 0.0343 µg/mL
IC50 (ug/ml), neutralizing activity [1]: > 10 µg/mL
IC50, pseudovirus neutralization [1]: > 10 µg/mL
IC80, pseudovirus neutralization [1]: > 10 µg/mL
IC90 (pseudovirus neutralization) [1]: > 10 µg/mL
IC95, pseudovirus neutralization [1]: > 10 µg/mL
IC50 (ug/ml), neutralizing activity [2]: 2.49 µg/mL
IC50, pseudovirus neutralization [2]: 2.49 µg/mL
IC80, pseudovirus neutralization [2]: > 10 µg/mL
IC90 (pseudovirus neutralization) [2]: > 10 µg/mL
IC95, pseudovirus neutralization [2]: > 10 µg/mL
IC50 (ug/ml), neutralizing activity [3]: > 10 µg/mL
IC50, pseudovirus neutralization [3]: > 10 µg/mL
IC80, pseudovirus neutralization [3]: > 10 µg/mL
IC90 (pseudovirus neutralization) [3]: > 10 µg/mL
IC95, pseudovirus neutralization [3]: > 10 µg/mL
neutralization IC50 [4]: > 50 µg/mL
neutralization IC50 [5]: > 50 µg/mL
neutralization IC50 [6]: > 50 µg/mL
neutralization IC50 [7]: > 50 µg/mL
neutralization IC50 [8]: > 50 µg/mL
IC50 [9]: 0.307 µg/mL
IC50, pseudovirus neutralization [10]: 0.009 µg/mL
IC50, pseudovirus neutralization [11]: 0.181 µg/mL
IC50, pseudovirus neutralization [12]: > 50 µg/mL
IC50, pseudovirus neutralization [13]: 33.5 µg/mL
IC50, pseudovirus neutralization [14]: 14.9 µg/mL
IC50, pseudovirus neutralization [15]: 3.97 µg/mL
IC50, pseudovirus neutralization [16]: 0.005 µg/mL
IC50, pseudovirus neutralization [17]: > 50 µg/mL
IC50, pseudovirus neutralization [18]: > 50 µg/mL
IC50, pseudovirus neutralization [19]: 0.026 µg/mL
IC50, pseudovirus neutralization [20]: 0.008 µg/mL
IC50, pseudovirus neutralization [21]: 0.182 µg/mL
IC50 (ug/ml), neutralizing activity [22]: > 10 µg/mL
IC50, pseudovirus neutralization [22]: > 10 µg/mL
IC80, pseudovirus neutralization [22]: > 10 µg/mL
IC90 (pseudovirus neutralization) [22]: > 10 µg/mL
IC95, pseudovirus neutralization [22]: > 10 µg/mL
IC50, pseudovirus neutralization [23]: > 50 µg/mL

4877_D15 (PGT-122) (antibody)
IC50 (ug/ml), neutralizing activity [24]: 0.0337 µg/mL
IC50 (ug/ml), neutralizing activity [25]: 0.0072 µg/mL
IC50 (ug/ml), neutralizing activity [1]: > 10 µg/mL
IC50 (ug/ml), neutralizing activity [2]: > 10 µg/mL
IC50 (ug/ml), neutralizing activity [3]: > 10 µg/mL
neutralization IC50 [4]: > 50 µg/mL
neutralization IC50 [5]: > 50 µg/mL
neutralization IC50 [6]: > 50 µg/mL
neutralization IC50 [7]: > 50 µg/mL
neutralization IC50 [8]: > 50 µg/mL
IC50 [9]: 2.3 µg/mL
IC50, pseudovirus neutralization [10]: 0.005 µg/mL
IC50, pseudovirus neutralization [11]: 2.15 µg/mL
IC50, pseudovirus neutralization [12]: > 50 µg/mL
IC50, pseudovirus neutralization [13]: 0.514 µg/mL
IC50, pseudovirus neutralization [14]: 31.3 µg/mL
IC50, pseudovirus neutralization [15]: 3.45 µg/mL
IC50, pseudovirus neutralization [16]: 0.008 µg/mL
IC50, pseudovirus neutralization [17]: > 50 µg/mL
IC50, pseudovirus neutralization [18]: > 50 µg/mL
IC50, pseudovirus neutralization [19]: 0.032 µg/mL
IC50, pseudovirus neutralization [20]: 0.016 µg/mL
IC50, pseudovirus neutralization [21]: 0.606 µg/mL
IC50 (ug/ml), neutralizing activity [22]: > 10 µg/mL
IC50, pseudovirus neutralization [23]: > 50 µg/mL
Neutralization by PGT-122, IC50 [23]: > 10 µg/mL
Neutralization by PGT-122, IC80 [23]: > 10 µg/mL
Neutralization by PGT-122, IC90 [23]: > 10 µg/mL
Neutralization by PGT-122, IC95 [23]: > 10 µg/mL

5123_A06 (PGT-125) (antibody)
IC50 (ug/ml), neutralizing activity [24]: 0.0214 µg/mL
neutralization IC50 [24]: 0.0214 µg/mL
neutralization IC80 [24]: 0.0738 µg/mL
neutralization IC90 [24]: 0.156 µg/mL
neutralization IC95 [24]: 0.323 µg/mL
IC50 (ug/ml), neutralizing activity [25]: 0.0028 µg/mL
neutralization IC50 [25]: 0.0028 µg/mL
neutralization IC80 [25]: 0.011 µg/mL
neutralization IC90 [25]: 0.0248 µg/mL
neutralization IC95 [25]: 0.0526 µg/mL
IC50 (ug/ml), neutralizing activity [1]: 0.0066 µg/mL
neutralization IC50 [1]: 0.0066 µg/mL
neutralization IC80 [1]: 0.0292 µg/mL
neutralization IC90 [1]: 0.0701 µg/mL
neutralization IC95 [1]: 0.157 µg/mL
IC50 (ug/ml), neutralizing activity [2]: > 10 µg/mL
neutralization IC50 [2]: > 10 µg/mL
neutralization IC80 [2]: > 10 µg/mL
neutralization IC90 [2]: > 10 µg/mL
neutralization IC95 [2]: > 10 µg/mL
IC50 (ug/ml), neutralizing activity [3]: > 10 µg/mL
neutralization IC50 [3]: > 10 µg/mL
neutralization IC80 [3]: > 10 µg/mL
neutralization IC90 [3]: > 10 µg/mL
neutralization IC95 [3]: > 10 µg/mL
neutralization IC50 [4]: > 50 µg/mL
neutralization IC50 [5]: 0.01 µg/mL
neutralization IC50 [6]: 0.009 µg/mL
neutralization IC50 [7]: 0.876 µg/mL
neutralization IC50 [8]: > 50 µg/mL
IC50 [9]: > 50 µg/mL
IC50, pseudovirus neutralization [10]: 0.033 µg/mL
IC50, pseudovirus neutralization [11]: > 50 µg/mL
IC50, pseudovirus neutralization [12]: > 50 µg/mL
IC50, pseudovirus neutralization [13]: > 50 µg/mL
IC50, pseudovirus neutralization [14]: > 50 µg/mL
IC50, pseudovirus neutralization [15]: > 50 µg/mL
IC50, pseudovirus neutralization [16]: 0.007 µg/mL
IC50, pseudovirus neutralization [17]: > 50 µg/mL
IC50, pseudovirus neutralization [18]: > 50 µg/mL
IC50, pseudovirus neutralization [19]: > 50 µg/mL
IC50, pseudovirus neutralization [20]: > 50 µg/mL
IC50, pseudovirus neutralization [21]: 34.4 µg/mL
IC50 (ug/ml), neutralizing activity [22]: > 10 µg/mL
neutralization IC50 [22]: > 10 µg/mL
neutralization IC80 [22]: > 10 µg/mL
neutralization IC90 [22]: > 10 µg/mL
neutralization IC95 [22]: > 10 µg/mL
IC50, pseudovirus neutralization [23]: > 50 µg/mL

5145_B14 (PGT-127) (antibody)
neutralization IC50 [4]: > 50 µg/mL
neutralization IC50 [5]: > 50 µg/mL
neutralization IC50 [6]: > 50 µg/mL
neutralization IC50 [7]: > 50 µg/mL
neutralization IC50 [8]: > 50 µg/mL
IC50 [9]: > 50 µg/mL
IC50, pseudovirus neutralization [10]: 0.113 µg/mL
IC50, pseudovirus neutralization [11]: > 50 µg/mL
IC50, pseudovirus neutralization [12]: > 50 µg/mL
IC50, pseudovirus neutralization [13]: > 50 µg/mL
IC50, pseudovirus neutralization [14]: > 50 µg/mL
IC50, pseudovirus neutralization [15]: 7.7 µg/mL
IC50, pseudovirus neutralization [16]: 0.009 µg/mL
IC50, pseudovirus neutralization [17]: > 50 µg/mL
IC50, pseudovirus neutralization [18]: > 50 µg/mL
IC50, pseudovirus neutralization [19]: > 50 µg/mL
IC50, pseudovirus neutralization [20]: 0.429 µg/mL
IC50, pseudovirus neutralization [21]: > 50 µg/mL
IC50, pseudovirus neutralization [23]: > 50 µg/mL
